From patent US20220177587A1, “METHODS AND USES OF VARIANT CD80 FUSION PROTEINS AND RELATED CONSTRUCTS” (Alpine Immune Sciences, Inc., priority 2018, published 2022)

B1: variant CD80 IgV-Fc V22L/Q27H/E35D/M47I/A71G (Fc fusion)
chain: VIHVTKEVKEVATLSCGHNVSLEELAHTRIYWQKDKKMVLTMMSGDINIWPEYKNRTIFDITNNLSIVILGLRPSDEGTYECVVLKYEKDAFKREHLAEVTLSVKAD
B2: variant CD80 IgV-Fc V22A/E23D/Q33L/E35D/M47V (Fc fusion)
chain: VIHVTKEVKEVATLSCGHNVSADELAQTRIYWLKDKKMVLTMMSGDVNIWPEYKNRTIFDITNNLSIVILALRPSDEGTYECVVLKYEKDAFKREHLAEVTLSVKAD
B3: variant CD80 IgV-Fc Q33L/E35D/M47I/L85Q (Fc fusion)
chain: VIHVTKEVKEVATLSCGHNVSVEELAQTRIYWLKDKKMVLTMMSGDINIWPEYKNRTIFDITNNLSIVILALRPSDEGTYECVVQKYEKDAFKREHLAEVTLSVKAD
B4: variant CD80 IgV-Fc Q33L/E35D/M47V/L85Q (Fc fusion)
chain: VIHVTKEVKEVATLSCGHNVSVEELAQTRIYWLKDKKMVLTMMSGDVNIWPEYKNRTIFDITNNLSIVILALRPSDEGTYECVVQKYEKDAFKREHLAEVTLSVKAD
B5: variant CD80 IgV-Fc Q33L/E35D/M47I (Fc fusion)
chain: VIHVTKEVKEVATLSCGHNVSVEELAQTRIYWLKDKKMVLTMMSGDINIWPEYKNRTIFDITNNLSIVILALRPSDEGTYECVVLKYEKDAFKREHLAEVTLSVKAD
B6: variant CD80 IgV-Fc H18Y/E35D/M47L (Fc fusion)
chain: VIHVTKEVKEVATLSCGYNVSVEELAQTRIYWQKDKKMVLTMMSGDLNIWPEYKNRTIFDITNNLSIVILALRPSDEGTYECVVLKYEKDAFKREHLAEVTLSVKAD
B7: variant CD80 IgV-Fc E35D/T41S/M43I/M47V/A71G (Fc fusion)
chain: VIHVTKEVKEVATLSCGHNVSVEELAQTRIYWQKDKKMVLSMISGDVNIWPEYKNRTIFDITNNLSIVILGLRPSDEGTYECVVLKYEKDAFKREHLAEVTLSVKAD
B8: variant CD80 IgV-Fc H18Y/Q33L/E35D/M47I (Fc fusion)
chain: VIHVTKEVKEVATLSCGYNVSVEELAQTRIYWLKDKKMVLTMMSGDINIWPEYKNRTIFDITNNLSIVILALRPSDEGTYECVVLKYEKDAFKREHLAEVTLSVKAD
B9: variant CD80 IgV-Fc Q33L/E35D/M47I/T62N/L85Q (Fc fusion)
chain: VIHVTKEVKEVATLSCGHNVSVEELAQTRIYWLKDKKMVLTMMSGDINIWPEYKNRTIFDINNNLSIVILALRPSDEGTYECVVQKYEKDAFKREHLAEVTLSVKAD
B10: variant CD80 IgV-Fc A26E/E35D/M43T/M47L/L85Q/R94Q (Fc fusion)
chain: VIHVTKEVKEVATLSCGHNVSVEELEQTRIYWQKDKKMVLTMTSGDLNIWPEYKNRTIFDITNNLSIVILALRPSDEGTYECVVQKYEKDAFKQEHLAEVTLSVKAD
B11: variant CD80 IgV-Fc V22D/E35D/M47L/L85Q (Fc fusion)
chain: VIHVTKEVKEVATLSCGHNVSDEELAQTRIYWQKDKKMVLTMMSGDLNIWPEYKNRTIFDITNNLSIVILALRPSDEGTYECVVQKYEKDAFKREHLAEVTLSVKAD

Columns and labels:
[1] = biological target: CD28 (human) (UniProt P10747); test: flow cytometry, Jurkat/IL2 reporter cells (CD28)
[2] = biological target: human CTLA-4 (human) (UniProt P16410); test: flow cytometry, CHO cells expressing huCTLA4
Chain of human CTLA-4 (human) (P16410 36-223): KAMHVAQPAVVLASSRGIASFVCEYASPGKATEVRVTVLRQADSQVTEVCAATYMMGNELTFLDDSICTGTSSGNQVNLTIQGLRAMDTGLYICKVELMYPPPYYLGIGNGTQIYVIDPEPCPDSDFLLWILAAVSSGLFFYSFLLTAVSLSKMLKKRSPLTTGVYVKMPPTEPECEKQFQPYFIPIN

[3] = biological target: human PD-L1 (human) (UniProt Q9NZQ7); test: flow cytometry, CHO cells expressing huPD-L1
Chain of human PD-L1 (human) (Q9NZQ7 19-290): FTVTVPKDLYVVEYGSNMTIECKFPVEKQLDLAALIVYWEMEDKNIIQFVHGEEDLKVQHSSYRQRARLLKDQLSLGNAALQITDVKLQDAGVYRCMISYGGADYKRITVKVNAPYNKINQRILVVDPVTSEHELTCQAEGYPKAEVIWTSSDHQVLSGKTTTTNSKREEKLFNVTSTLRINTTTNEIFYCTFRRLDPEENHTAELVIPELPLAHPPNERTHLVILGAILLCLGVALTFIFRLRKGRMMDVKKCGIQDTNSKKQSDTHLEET

[4] = biological target: CD28 (human) (UniProt P10747); test: flow cytometry, Jurkat/IL2 reporter cells (endogenous CD28)
[5] = biological target: human PD-L1 (human) (UniProt Q9NZQ7); test: flow cytometry; binding to PD-L1 cells against binding of the same variant to CD28 cells
[6] = biological target: CD28 (human) (UniProt P10747); test: flow cytometry, Jurkat/IL2 reporter cells (endogenous CD28); MFI ratio to WT CD80 ECD-Fc (R&D)
[7] = biological target: human PD-L1 (human) (UniProt Q9NZQ7); test: flow cytometry, CHO cells expressing huPD-L1; MFI ratio to WT CD80 ECD-Fc (R&D)
[8] = biological target: human CTLA-4 (human) (UniProt P16410); test: flow cytometry, CHO cells expressing huCTLA4; MFI ratio to WT CD80 ECD-Fc (R&D)

Binder	MFI at 33.3 nM [1]	MFI at 33.3 nM [2]	MFI at 33.3 nM [3]	MFI at 33.3 nM [4]	Ratio of PDL1:CD28 [5]	Fold change to WT [6]	Fold change to WT [7]	Fold change to WT CD80 [8]
B1	7270 MFI	152000 MFI	43800 MFI					
B2		3640 MFI	75500 MFI	274 MFI	275	0.04 fold	9.51 fold	0.02 fold
B3		20500 MFI	63900 MFI	287 MFI	222	0.04 fold	8.05 fold	0.11 fold
B4		75400 MFI	47400 MFI	268 MFI	177	0.04 fold	5.97 fold	0.42 fold
B5		15900 MFI	37400 MFI	282 MFI	132	0.04 fold	4.7 fold	0.09 fold
B6		284000 MFI	44200 MFI	5070 MFI	9	0.66 fold	5.56 fold	1.59 fold
B7	2840 MFI		44400 MFI					
B8		5540 MFI	47800 MFI	295 MFI	162	0.04 fold	6.02 fold	0.03 fold
B9		1660 MFI	72600 MFI	284 MFI	256	0.04 fold	9.14 fold	0.01 fold
B10		278000 MFI	68100 MFI	260 MFI	262	0.03 fold	8.57 fold	1.56 fold
B11	542 MFI	256000 MFI						
